Data: the supplement of paper PMC9876800

Tested on: peptide library, one residue held at a place counted from the S/T acceptor
Test: relative phosphorylation of the sub-library (ratio to the mean residue at this position); higher = residue favoured
Details: human
Summary of the method: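 Relative sub-library phosphorylation is the ratio of each sub-library's signal to the mean residue at that position. The signal came from phosphorimaging of spots on streptavidin membranes, quantified by densitometry, after purified recombinant kinases reacted with biotinylated degenerate peptide sub-libraries in 384-well plates. Reactions held 50 μM peptide and 50 μM ATP spiked with γ-32P-ATP for 90 min under kinase-specific conditions.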

CSNK1A1, construct: Full length, sequence (P48729 whole entry, looked up): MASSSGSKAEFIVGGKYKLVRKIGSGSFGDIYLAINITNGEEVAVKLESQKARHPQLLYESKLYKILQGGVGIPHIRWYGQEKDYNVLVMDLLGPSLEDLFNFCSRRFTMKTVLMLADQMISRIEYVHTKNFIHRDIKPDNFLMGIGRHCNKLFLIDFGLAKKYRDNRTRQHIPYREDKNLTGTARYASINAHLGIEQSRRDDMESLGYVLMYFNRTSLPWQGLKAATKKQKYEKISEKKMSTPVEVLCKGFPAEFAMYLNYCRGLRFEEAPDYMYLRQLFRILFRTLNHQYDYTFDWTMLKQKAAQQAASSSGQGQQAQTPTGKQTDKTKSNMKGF
STK32C, construct: aa66-end, sequence (Q86UX6 66-486, looked up): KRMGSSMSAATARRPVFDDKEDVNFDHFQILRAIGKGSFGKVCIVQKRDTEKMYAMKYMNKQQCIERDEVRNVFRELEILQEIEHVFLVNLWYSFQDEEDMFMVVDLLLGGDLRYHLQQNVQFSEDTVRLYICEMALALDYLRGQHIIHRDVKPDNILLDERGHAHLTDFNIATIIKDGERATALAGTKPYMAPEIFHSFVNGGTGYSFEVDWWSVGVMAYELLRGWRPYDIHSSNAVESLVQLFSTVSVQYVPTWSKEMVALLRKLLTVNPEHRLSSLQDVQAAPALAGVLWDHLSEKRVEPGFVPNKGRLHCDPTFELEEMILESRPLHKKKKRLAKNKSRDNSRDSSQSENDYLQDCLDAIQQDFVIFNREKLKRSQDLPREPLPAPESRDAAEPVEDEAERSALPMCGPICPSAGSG

CSNK1A1, construct: Full length (from UniProt P48729)
relative phosphorylation
Details	at +1	at +2	at +3	at +4	at -1	at -2	at -3	at -4	at -5
A fixed	0.898	1.02	1	1.11	1.24	2.02	0.811	1.17	1.13
D fixed	0.691	0.553	0.8	1.09	0.696	0.92	3.33	1.38	1.2
E fixed	1.21	0.343	0.994	0.958	1.01	1.44	3.21	1.74	1.17
F fixed	0.725	1.5	1.2	1.18	0.665	0.688	0.558	0.898	1.06
G fixed	0.869	0.952	1.76	1.1	1.08	1.04	0.749	1.11	1
H fixed	1.17	1.65	1.64	1.09	1.17	0.881	0.579	0.933	1.06
I fixed	1.59	1.27	0.695	0.869	0.671	0.81	0.625	0.754	0.829
K fixed	0.509	0.699	0.6	0.782	1.1	0.705	0.633	0.734	0.956
L fixed	1.12	0.726	0.754	0.865	0.76	0.837	0.581	0.677	0.969
M fixed	1.1	0.892	1.01	0.946	1.04	0.897	0.562	0.744	0.901
N fixed	1.15	0.742	0.776	0.737	1.24	1.09	0.831	0.915	0.824
P fixed	0.639	1.09	0.847	0.989	1.14	1.38	0.826	1.09	1.43
Q fixed	1.22	0.626	0.727	0.848	1.61	1.08	0.75	0.706	0.717
R fixed	0.59	0.632	0.552	0.628	1.04	0.824	0.746	0.74	0.768
V fixed	2.02	0.985	0.711	0.923	0.787	0.986	0.595	0.692	0.78
W fixed	0.738	1.59	1.38	1.46	0.898	0.635	0.628	1.67	1.16
Y fixed	0.771	1.73	1.55	1.44	0.839	0.763	0.987	1.04	1.04
pThr fixed	3.36	0.673	1.04	3.07	1.48	5.81	100	10.8	2.93
pTyr fixed	1.32	6.1	4.04	2.48	1.76	3.06	5.64	10.7	3.72

STK32C, construct: aa66-end (from UniProt Q86UX6)
relative phosphorylation
Details	at +1	at +2	at +3	at +4	at -1	at -2	at -3	at -4	at -5
A fixed	0.586	0.613	0.769	0.982	0.776	0.864	0.945	1.11	1.1
D fixed	0.55	0.69	0.689	0.866	0.807	0.64	0.957	1.38	1.18
E fixed	1.12	1.13	0.957	1.46	0.767	0.801	1.03	1.24	0.887
F fixed	2.08	1.21	1.08	0.741	0.739	1.04	0.611	0.759	0.924
G fixed	0.541	0.564	0.682	0.907	1.26	0.918	0.985	1.42	1.32
H fixed	0.588	1.04	1.1	1.02	0.849	0.895	0.645	0.763	0.862
I fixed	1.92	1.03	1.51	0.836	0.592	0.773	0.758	0.812	0.912
K fixed	0.671	0.572	1.05	1.19	1.14	0.826	0.951	0.962	1.05
L fixed	0.965	1.19	0.968	0.832	0.809	1.33	0.772	0.756	0.954
M fixed	1.77	1.09	0.944	0.892	1.09	1.12	0.745	0.94	0.923
N fixed	0.651	0.755	0.836	0.992	1.04	0.841	0.76	0.93	0.882
P fixed	0.399	0.362	0.54	1.21	1.73	1.09	1.04	1.14	1.06
Q fixed	1.18	0.714	0.917	1.07	1.08	0.824	0.796	0.838	0.779
R fixed	1.06	0.743	1.23	1.25	1.97	2.49	3.68	1.38	1.43
V fixed	1.14	0.809	1.33	0.798	0.779	0.745	0.814	0.883	0.854
W fixed	0.863	2.44	1.21	1.05	0.672	0.887	0.698	0.86	0.954
Y fixed	0.919	2.05	1.18	0.899	0.909	0.911	0.804	0.829	0.927
pThr fixed	1.03	2.66	3.27	2.05	1.08	1.28	7.04	1.72	1.18
pTyr fixed	2.11	71.5	5.77	9.82	1.41	2.55	1.39	1.07	1.07
